The chains are these.
T1: PUF4 RNA-binding domain (Saccharomyces cerevisiae, UniProt P25339 537-888)
T1 sequence: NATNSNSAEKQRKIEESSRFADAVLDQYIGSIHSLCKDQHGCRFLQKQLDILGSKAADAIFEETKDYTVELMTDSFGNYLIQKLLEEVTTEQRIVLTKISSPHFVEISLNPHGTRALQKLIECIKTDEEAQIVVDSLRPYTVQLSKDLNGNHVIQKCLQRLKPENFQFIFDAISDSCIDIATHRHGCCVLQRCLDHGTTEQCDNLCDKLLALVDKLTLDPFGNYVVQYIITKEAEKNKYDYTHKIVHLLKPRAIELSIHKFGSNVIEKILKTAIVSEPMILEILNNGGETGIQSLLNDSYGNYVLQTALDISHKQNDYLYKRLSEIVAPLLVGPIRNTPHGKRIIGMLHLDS

B1: Id_ii_S1_P3E.3_K3.2_C3.2_[T-1A]_H3.2_A3.1_F3.1_T3.2_[T9C]_[A10T] (ssRNA)
RNA: UCUCUUCAUAUAUAUACUUCUCUU
B2: Id_ii_S1_P3E.3_K3.2_C3.2_[T-1C]_H3.2_A3.1_F3.1_T3.2_[A10C] (ssRNA)
RNA: UCUCUUCCUAUAUAUAUCUCUCUU
B3: Id_ii_S1_P3E.3_K3.2_C3.2_[T-1C]_H3.2_A3.1_F3.1_T3.2 (ssRNA)
RNA: UCUCUUCCUAUAUAUAUAUCUCUU
B4: Ib_S1_P4E.1_K4.1_C4.1_H4.1_[G2A]_A4.1_[T5C]_F4.1_T4.1 (ssRNA)
RNA: UCUCUUUAUACAUUAUCUCUU
B5: Id_ii_S1_P3E.3_K3.2_C3.2_[T-1A]_H3.2_A3.1_F3.1_T3.2_[A10C] (ssRNA)
RNA: UCUCUUCAUAUAUAUAUCUCUCUU
B6: Id_ii_S1_P3E.3_K3.2_C3.2_H3.2_A3.1_F3.1_T3.2_[T9C]_[A10G] (ssRNA)
RNA: UCUCUUCUUAUAUAUACGUCUCUU
B7: Id_ii_S1_P3E.3_K3.2_C3.2_[T-1C]_H3.2_A3.1_F3.1_T3.2_[T9C] (ssRNA)
RNA: UCUCUUCCUAUAUAUACAUCUCUU
B8: Id_ii_S1_P3E.3_K3.2_C3.2_[T-1A]_H3.2_A3.1_F3.1_T3.2_[T9G]_[A10G] (ssRNA)
RNA: UCUCUUCAUAUAUAUAGGUCUCUU
B9: Id_ii_S1_P3E.3_K3.2_C3.2_H3.2_A3.1_F3.1_T3.2_[T9G]_[A10C] (ssRNA)
RNA: UCUCUUCUUAUAUAUAGCUCUCUU
B10: Id_ii_S1_P3E.3_K3.2_C3.2_[T-1A]_H3.2_A3.1_F3.1_T3.2_[T9G]_[A10T] (ssRNA)
RNA: UCUCUUCAUAUAUAUAGUUCUCUU
B11: Id_ii_S1_P3E.3_K3.2_C3.2_[T-1C]_H3.2_A3.1_F3.1_T3.2_[T9C]_[A10G] (ssRNA)
RNA: UCUCUUCCUAUAUAUACGUCUCUU
B12: Id_ii_S1_P3E.3_K3.2_C3.2_[T-1A]_H3.2_A3.1_F3.1_T3.2 (ssRNA)
RNA: UCUCUUCAUAUAUAUAUAUCUCUU
B13: Id_ii_S1_P3E.3_K3.2_C3.2_[T-1C]_H3.2_A3.1_F3.1_T3.2_[T9A]_[A10G] (ssRNA)
RNA: UCUCUUCCUAUAUAUAAGUCUCUU
B14: Id_ii_S1_P3E.3_K3.2_C3.2_H3.2_A3.1_F3.1_T3.2_[T9G]_[A10T] (ssRNA)
RNA: UCUCUUCUUAUAUAUAGUUCUCUU
B15: Id_ii_S1_P3E.3_K3.2_C3.2_[T-1C]_H3.2_A3.1_F3.1_T3.2_[A10G] (ssRNA)
RNA: UCUCUUCCUAUAUAUAUGUCUCUU
B16: Id_ii_S1_P3E.3_K3.2_C3.2_[T-1A]_H3.2_A3.1_F3.1_T3.2_[T9C]_[A10G] (ssRNA)
RNA: UCUCUUCAUAUAUAUACGUCUCUU
B17: Id_ii_S1_P3E.3_K3.2_C3.2_[T-1A]_H3.2_A3.1_F3.1_T3.2_[A10T] (ssRNA)
RNA: UCUCUUCAUAUAUAUAUUUCUCUU
B18: Id_ii_S1_P3E.3_K3.2_C3.2_[T-1C]_H3.2_A3.1_F3.1_T3.2_[T9G]_[A10T] (ssRNA)
RNA: UCUCUUCCUAUAUAUAGUUCUCUU
B19: Ib_S1_P4E.1_K4.1_C4.1_H4.1_[G2A]_A4.1_[T5A]_F4.1_T4.1 (ssRNA)
RNA: UCUCUUUAUAAAUUAUCUCUU
B20: Id_ii_S1_P3E.3_K3.2_C3.2_[T-1C]_H3.2_A3.1_F3.1_T3.2_[T9C]_[A10C] (ssRNA)
RNA: UCUCUUCCUAUAUAUACCUCUCUU
B21: Id_ii_S1_P3E.3_K3.2_C3.2_[T-1A]_H3.2_A3.1_F3.1_T3.2_[T9C] (ssRNA)
RNA: UCUCUUCAUAUAUAUACAUCUCUU
B22: Id_ii_S1_P3E.3_K3.2_C3.2_[T-1A]_H3.2_A3.1_F3.1_T3.2_[T9G]_[A10C] (ssRNA)
RNA: UCUCUUCAUAUAUAUAGCUCUCUU
B23: Id_ii_S1_P3E.3_K3.2_C3.2_[T-1C]_H3.2_A3.1_F3.1_T3.2_[A10T] (ssRNA)
RNA: UCUCUUCCUAUAUAUAUUUCUCUU
B24: Id_ii_S1_P3E.3_K3.2_C3.2_[T-1C]_H3.2_A3.1_F3.1_T3.2_[T9A]_[A10C] (ssRNA)
RNA: UCUCUUCCUAUAUAUAACUCUCUU
B25: Id_ii_S1_P3E.3_K3.2_C3.2_[T-1A]_H3.2_A3.1_F3.1_T3.2_[T9A]_[A10T] (ssRNA)
RNA: UCUCUUCAUAUAUAUAAUUCUCUU

This series addresses T1, PUF4 RNA-binding domain. As to the kind of experiment: Mg; RNA-MaP; 20 mM Na-HEPES pH 7.4, 30 mM KOAc, 0.75 mM MgCl2, 0.1% Tween-20, 5% glycerol, 0.1 mg/mL BSA, 2 mM DTT; 25 C; 0.0125-409.6 nM protein. The conditions noted are these: tags: N-His6-TEV cleaved; C-SNAP kept, Cy3B-labelled; label: tethered on chip by stalled RNA polymerase.
B1 gave a dissociation constant (Kd) of 618 nM.

Turning to B2, the Kd was 1000 nM.

B3 came in with a Kd of 578 nM.

Take B4: the affinity, expressed as Kd, was 23.8 nM.

B5: binding was characterised by a dissociation constant (Kd) of 717 nM.

In turn, B6 showed a Kd of 1260 nM.

B7 showed a Kd of 1260 nM.

B8 returned a dissociation constant Kd of 804 nM.

For B9, the Kd worked out at 77.5 nM.

As for B10, the Kd was determined as 413 nM. Against the preceding molecule, the Kd is about 5.3-fold higher.

In turn, B11 registered a dissociation constant Kd of 1950 nM. This Kd lies about 4.7-fold higher than the previous one.

On to B12, for which binding was characterised by a dissociation constant (Kd) of 624 nM.

On to B13, for which the dissociation constant (Kd) came out at 1540 nM.

In turn, B14 yielded a Kd of 109 nM. This Kd lies about 14-fold lower than the previous one.

B15 displayed a Kd of 770 nM.

In turn, B16 returned a dissociation constant Kd of 1120 nM. This Kd and that of the molecule before are within 1.5-fold of each other.

Consider B17, for which binding was characterised by a dissociation constant (Kd) of 515 nM.

The molecule B18 showed a dissociation constant Kd of 787 nM.

For the molecule B19, the Kd was found to be 128 nM.

B20 had a dissociation constant (Kd) of 969 nM.

In turn, B21 came in with a Kd of 1300 nM. This Kd and that of the molecule before are within 1.5-fold of each other.

In the case of B22, binding was put at a Kd of 512 nM.

With B23, the Kd was found to be 673 nM.

With B24, the affinity, expressed as Kd, was 1070 nM. Against the preceding molecule, the Kd is about 1.6-fold higher.

In the case of B25, the affinity, expressed as Kd, was 669 nM. Against the preceding molecule, the Kd is about 1.6-fold lower.

The values are drawn from article PMC9352680, “A comprehensive thermodynamic model for RNA binding by the Saccharomyces cerevisiae Pumilio protein PUF4”.
